We go through 13 molecules from patent publication US20230272055A1 (Incyte, published 2023).

The labels stand for the following.
B1: anti-mutCALR antibody clone 75 (antibody, human IgG1, lambda, N297A, V domains shown)
VH: EVQLVQSGAEVKKPGASVKVSCKVSGYTLTELSMQWVRQAPGKGLEWMGGFDPDDGETMYAEKFQGRLTVTEDTSTDTVYMELRSLTSEDTALYFCATSPGYDFFDYWGQGTLVTVSS
VL: SYVLTQPPSVSVAPGKTARITCGGNNIGSKSVHWYQQKPGQAPVLVVYDDSDRPSGIPERFSGSNSGNTATLTISRVEAGDEADYYCQVWDSSNDLLIFGGGTKLTVLG
notes: human IgG1 N297A variant of clone 6
B2: anti-mutCALR antibody clone 83 (antibody, human IgG1, lambda, N297A, V domains shown)
VH: EVQLVQSGAEVKKPGASVKVSCKVSGYTLTELSMQWVRQAPGKGLEWMGGFDPDEGETMYAEKFQGRLTVTEDTSTDTVYMELSSLRSEDTAVYFCATSPGYDFFDYWGQGTLVTVSS
VL: SYVLTQPPSVSVAPGKTARITCGGNNIGSKSVHWYQQKPGQAPVLVVYDDSDRPSGIPERFSGSNSGNTATLTISRVEAGDEADYYCQVWDSSNDLLIFGGGTKLTVLG
notes: as for B1
B3: anti-mutCALR antibody clone 76 (antibody, human IgG1, lambda, N297A, V domains shown)
VH: EVQLVQSGAEVKKPGASVKVSCKVSGYTLTELSMQWVRQAPGKGLEWMGGFDPDAGETMYAEKFQGRLTVTEDTSTDTVYMELRSLTSEDTALYFCATSPGYDFFDYWGQGTLVTVSS
VL: SYVLTQPPSVSVAPGKTARITCGGNNIGSKSVHWYQQKPGQAPVLVVYDDSDRPSGIPERFSGSNSGNTATLTISRVEAGDEADYYCQVWDSSNDLLIFGGGTKLTVLG
notes: as for B1
B4: anti-mutCALR antibody clone 125 (antibody, human IgG1, lambda, N297A, V domains shown)
VH: EVQLVQSGAEVKKPGASVKVSCKVSGYTLTELSMQWVRQAPGKGLEWMGGFDPDAGETMYAEKFQGRLTVTEDTSTDTVYMELRSLTSEDTALYFCATSPGYDFFDYWGQGTLVTVSS
VL: SYELTQPPSVSVAPGKTARITCGGDNIGSKSVHWYQQKPGQAPVLVVYDDSDRPSGIPERFSGSNSGNTATLTINRVEAGDEADYYCQVWDSSNDLLIFGGGTKLTVLG
notes: human IgG1 N297A variant of clone 15
B5: anti-mutCALR antibody clone 77 (antibody, human IgG1, lambda, N297A, V domains shown)
VH: EVQLVQSGAEVKKPGASVKVSCKVSGYTLTELSMQWVRQAPGKGLEWMGGFDPDSGETMYAEKFQGRLTVTEDTSTDTVYMELRSLTSEDTALYFCATSPGYDFFDYWGQGTLVTVSS
VL: SYVLTQPPSVSVAPGKTARITCGGNNIGSKSVHWYQQKPGQAPVLVVYDDSDRPSGIPERFSGSNSGNTATLTISRVEAGDEADYYCQVWDSSNDLLIFGGGTKLTVLG
notes: as for B1
B6: anti-mutCALR antibody clone 81 (antibody, human IgG1, lambda, N297A, V domains shown)
VH: EVQLVQSGAEVKKPGASVKVSCKVSGYTLTELSMQWVRQAPGKGLEWMGGFDPDAGETMYAEKFQGRLTVTEDTSTDTVYMELSSLRSEDTAVYFCATSPGYDFFDYWGQGTLVTVSS
VL: SYVLTQPPSVSVAPGKTARITCGGNNIGSKSVHWYQQKPGQAPVLVVYDDSDRPSGIPERFSGSNSGNTATLTISRVEAGDEADYYCQVWDSSNDLLIFGGGTKLTVLG
notes: as for B1
B7: anti-mutCALR antibody clone 126 (antibody, human IgG1, lambda, N297A, V domains shown)
VH: EVQLVQSGAEVKKPGASVKVSCKVSGYTLTELSMQWVRQAPGKGLEWMGGFDPDSGETMYAEKFQGRLTVTEDTSTDTVYMELRSLTSEDTALYFCATSPGYDFFDYWGQGTLVTVSS
VL: SYELTQPPSVSVAPGKTARITCGGDNIGSKSVHWYQQKPGQAPVLVVYDDSDRPSGIPERFSGSNSGNTATLTINRVEAGDEADYYCQVWDSSNDLLIFGGGTKLTVLG
notes: as for B4
B8: anti-mutCALR antibody clone 80 (antibody, human IgG1, lambda, N297A, V domains shown)
VH: EVQLVQSGAEVKKPGASVKVSCKVSGYTLTELSMQWVRQAPGKGLEWMGGFDPDDGETMYAEKFQGRLTVTEDTSTDTVYMELSSLRSEDTAVYFCATSPGYDFFDYWGQGTLVTVSS
VL: SYVLTQPPSVSVAPGKTARITCGGNNIGSKSVHWYQQKPGQAPVLVVYDDSDRPSGIPERFSGSNSGNTATLTISRVEAGDEADYYCQVWDSSNDLLIFGGGTKLTVLG
notes: as for B1
B9: anti-mutCALR antibody clone 79 (antibody, human IgG1, lambda, N297A, V domains shown)
VH: EVQLVQSGAEVKKPGASVKVSCKVSGYTLTELSMQWVRQAPGKGLEWMGGFDPDDAETMYAEKFQGRLTVTEDTSTDTVYMELRSLTSEDTALYFCATSPGYDFFDYWGQGTLVTVSS
VL: SYVLTQPPSVSVAPGKTARITCGGNNIGSKSVHWYQQKPGQAPVLVVYDDSDRPSGIPERFSGSNSGNTATLTISRVEAGDEADYYCQVWDSSNDLLIFGGGTKLTVLG
notes: as for B1
B10: anti-mutCALR antibody clone 84 (antibody, human IgG1, lambda, N297A, V domains shown)
VH: EVQLVQSGAEVKKPGASVKVSCKVSGYTLTELSMQWVRQAPGKGLEWMGGFDPDDAETMYAEKFQGRLTVTEDTSTDTVYMELSSLRSEDTAVYFCATSPGYDFFDYWGQGTLVTVSS
VL: SYVLTQPPSVSVAPGKTARITCGGNNIGSKSVHWYQQKPGQAPVLVVYDDSDRPSGIPERFSGSNSGNTATLTISRVEAGDEADYYCQVWDSSNDLLIFGGGTKLTVLG
notes: as for B1
B11: anti-mutCALR antibody clone 78 (antibody, human IgG1, lambda, N297A, V domains shown)
VH: EVQLVQSGAEVKKPGASVKVSCKVSGYTLTELSMQWVRQAPGKGLEWMGGFDPDEGETMYAEKFQGRLTVTEDTSTDTVYMELRSLTSEDTALYFCATSPGYDFFDYWGQGTLVTVSS
VL: SYVLTQPPSVSVAPGKTARITCGGNNIGSKSVHWYQQKPGQAPVLVVYDDSDRPSGIPERFSGSNSGNTATLTISRVEAGDEADYYCQVWDSSNDLLIFGGGTKLTVLG
notes: as for B1
B12: anti-mutCALR antibody clone 124 (antibody, human IgG1, lambda, N297A)
heavy: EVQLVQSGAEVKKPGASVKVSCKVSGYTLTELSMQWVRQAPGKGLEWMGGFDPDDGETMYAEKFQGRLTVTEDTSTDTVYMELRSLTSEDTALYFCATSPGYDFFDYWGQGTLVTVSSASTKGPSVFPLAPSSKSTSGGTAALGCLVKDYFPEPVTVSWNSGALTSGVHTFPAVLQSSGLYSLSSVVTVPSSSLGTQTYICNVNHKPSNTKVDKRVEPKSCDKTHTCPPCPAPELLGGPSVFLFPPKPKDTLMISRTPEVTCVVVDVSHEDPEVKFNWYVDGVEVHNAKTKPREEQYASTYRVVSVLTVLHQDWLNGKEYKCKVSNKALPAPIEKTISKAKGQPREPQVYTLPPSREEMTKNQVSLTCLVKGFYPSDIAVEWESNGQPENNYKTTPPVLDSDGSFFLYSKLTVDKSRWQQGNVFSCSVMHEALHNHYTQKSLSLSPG
light: SYELTQPPSVSVAPGKTARITCGGDNIGSKSVHWYQQKPGQAPVLVVYDDSDRPSGIPERFSGSNSGNTATLTINRVEAGDEADYYCQVWDSSNDLLIFGGGTKLTVLGQPKAAPSVTLFPPSSEELQANKATLVCLISDFYPGAVTVAWKADSSPVKAGVETTTPSKQSNNKYAASSYLSLTPEQWKSHRSYSCQVTHEGSTVEKTVAPTECS
notes: as for B4
B13: anti-mutCALR antibody clone 82 (antibody, human IgG1, lambda, N297A, V domains shown)
VH: EVQLVQSGAEVKKPGASVKVSCKVSGYTLTELSMQWVRQAPGKGLEWMGGFDPDSGETMYAEKFQGRLTVTEDTSTDTVYMELSSLRSEDTAVYFCATSPGYDFFDYWGQGTLVTVSS
VL: SYVLTQPPSVSVAPGKTARITCGGNNIGSKSVHWYQQKPGQAPVLVVYDDSDRPSGIPERFSGSNSGNTATLTISRVEAGDEADYYCQVWDSSNDLLIFGGGTKLTVLG
notes: as for B1

The experiment deals with T1, Recombinant MBP-mutCALR Type 1 fusion protein (human).
T1 construct: custom made at Cepter; also called recombinant mutCALR protein
As to the kind of experiment: SPR, IgG captured, 1:1 fit, Exp. 2. The procedure: Experiment 2: Recombinant MBP-mutCALR Type 1 fusion protein was custom made at Cepter (cepterbiopartners.com). Data for the interaction of antibodies with recombinant mutCALR protein were collected at 25° C. on a Biacore 8K instrument (Cytiva, Marlborough, Mass.), and all reagents were obtained from Cytiva unless otherwise specified. The experiments were conducted using Tris-buffered saline (pH 7.2), 0.005% Surfactant P20, 1 mM CaCl₂) as running buffer. To prepare the capture surfaces, anti-human IgG (Fc) antibodies (Product #29234600) was amine-coupled onto a CM4 chip (Product #BR100534) under standard conditions using an Amine Coupling Kit (Product #BR100050). […] The kinetics parameters were obtained by applying 1:1 binding model to fit the data from multiple-cycle injection experiments using Biacore Insight Evaluation software.
(Surface plasmon resonance follows binding to a sensor surface in real time, without labels.)
On to B1, for which the Kd (as a rule, the free concentration of one partner at which half of the binding sites on the other are occupied at equilibrium, for simple one-to-one binding) stood at 0.637 nM; the koff (in general, the first-order rate constant of dissociation) was found to be 0.0039 s⁻¹; the kon (usually a measure of how fast the partners come together) stood at 6.12e+06 M⁻¹ s⁻¹.

On to B2, for which the Kd worked out at 1.76 nM, the koff came to 0.00992 s⁻¹ and the kon came to 5.62e+06 M⁻¹ s⁻¹.

As to B3, the Kd was 4.9 nM, the koff is 0.0155 s⁻¹ and the kon came to 3.16e+06 M⁻¹ s⁻¹.

B4: the Kd is 4.76 nM, the koff amounted to 0.0154 s⁻¹ and the kon is 3.23e+06 M⁻¹ s⁻¹.

As to B5, the Kd came out at 5.61 nM, the koff was found to be 0.0175 s⁻¹ and the kon turned out to be 3.13e+06 M⁻¹ s⁻¹.

For the molecule B6, the Kd amounted to 6.62 nM, the koff turned out to be 0.00494 s⁻¹ and the kon was 746000 M⁻¹ s⁻¹.

For B7, the Kd came out at 1.19 nM, the koff worked out at 0.00153 s⁻¹ and the kon amounted to 1.29e+06 M⁻¹ s⁻¹.

Take B8: the Kd is 0.638 nM and the koff was 0.00248 s⁻¹.

For B9, the Kd turned out to be 1.39 nM, the koff amounted to 0.00631 s⁻¹ and the kon stood at 4.53e+06 M⁻¹ s⁻¹.

Take B10: the Kd was 2.01 nM, the koff stood at 0.0018 s⁻¹ and the kon is 892000 M⁻¹ s⁻¹.

As for B11, the Kd came to 2.75 nM, the koff was found to be 0.0024 s⁻¹ and the kon was determined as 873000 M⁻¹ s⁻¹.

As to B12, the Kd is 1.04 nM, the koff was 0.00128 s⁻¹ and the kon came out at 1.23e+06 M⁻¹ s⁻¹.

In the case of B13, the Kd was 6.23 nM, the koff is 0.00475 s⁻¹ and the kon was found to be 762000 M⁻¹ s⁻¹.
